Consider 42 variants from the supplement of paper PMC12783771.

B1: library; a variant is named by its letters at X, in order (parent)
chain: MNIQIGELAKRTACPVVTIRFYEQEGLLPPPGRSRGNFRLYGEEHVERLQFIRHCRSLDMPLSDVRTLLSYRKRPDQDCGEVXMLLDEHIRQVESRIGALLELKHHLVELREACSGARPAQSCGILQXLSXCVCXTRGTTAHXSD

Variants of B1 are the subject of data set [1]. Kind of data set: sfGFP reporter fluorescence (15 h) (µM FITC); higher = higher leak. The following applies: library round: Round 2; ligand: none. The method, boiled down: (§1)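 Readout was endpoint sfGFP fluorescence, converted to µM FITC through standard curves. Reactions were 1 μL of BL21 Star (DE3) PANOx-SP extract with pPbrR-sfGFP reporter, 30 μg/mL GamS and linear PbrR templates normalized to 5 nM, containing 1 µM lead chloride, 30 µM zinc acetate or no metal. Incubation lasted 15 hr at 30 °C, with up to three biological replicates.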

Data set [2] covers variants of B1. The data set is described as follows: sfGFP reporter fluorescence (15 h) (µM FITC); higher = stronger transcriptional activation. As to conditions: library round: Round 2. The method, boiled down:
as §1

± gives the standard deviation of the averaged measurements.

On to NIDDP M60L P61N K104V L107C, for which the sfGFP reporter fluorescence in data set [1] is 0.315 ± 0.042; in data set [2] (ligand: 1 µM Pb), 1.19 ± 0.096; in data set [2] (ligand: 30 µM Zn), 2.16 ± 0.42.

For NTDAP L107C, the results for the sfGFP reporter fluorescence in data set [1], in data set [2] (ligand: 1 µM Pb) and in data set [2] (ligand: 30 µM Zn) were 0.819 ± 0.064, 1.7 ± 0.12 and 3.23 ± 0.041, respectively.

With NTDAP M60L P61N D64K, the sfGFP reporter fluorescence turned out to be 0.878 ± 0.074 in data set [1], 2.33 ± 0.17 in data set [2] (ligand: 1 µM Pb) and 3.33 ± 0.36 in data set [2] (ligand: 30 µM Zn).

Turning to TIDDP P61N D64K, the sfGFP reporter fluorescence in data set [1] is 0.106 ± 0.013; in data set [2] (ligand: 1 µM Pb) it was 0.617 ± 0.019; in data set [2] (ligand: 30 µM Zn), 1.75 ± 0.14.

With TIDDP L107C E109H, the results for the sfGFP reporter fluorescence in data set [1], in data set [2] (ligand: 1 µM Pb) and in data set [2] (ligand: 30 µM Zn) were 0.247 ± 0.016, 1.19 ± 0.15 and 2.03 ± 0.17, respectively.

As for NIDDP K104T L107E, the sfGFP reporter fluorescence came to 0.047 ± 0.0022 in data set [1], 0.0442 ± 0.00085 in data set [2] (ligand: 1 µM Pb) and 0.0493 ± 0.0021 in data set [2] (ligand: 30 µM Zn).

As for NIDDP L107C G124A, the sfGFP reporter fluorescence was found to be 0.942 ± 0.1 in data set [1], 2.53 ± 0.21 in data set [2] (ligand: 1 µM Pb) and 3.41 ± 0.84 in data set [2] (ligand: 30 µM Zn).

On to NMDAP L85I, for which the sfGFP reporter fluorescence is 0.11 ± 0.012 in data set [1], 0.278 ± 0.017 in data set [2] (ligand: 1 µM Pb) and 3.11 ± 0.44 in data set [2] (ligand: 30 µM Zn).

NMDDP L85I K104V: the sfGFP reporter fluorescence in data set [1] came out at 0.131 ± 0.013; in data set [2] (ligand: 1 µM Pb) it was 0.417 ± 0.024; in data set [2] (ligand: 30 µM Zn) it was 1.99 ± 1.7.

For the variant NMDDP L107C E109V, the values for the sfGFP reporter fluorescence in data set [1], in data set [2] (ligand: 1 µM Pb) and in data set [2] (ligand: 30 µM Zn) were 2.96 ± 0.17, 3.18 ± 0.55 and 3.51 ± 0.14, respectively.

As to NIDDP P61N D64K K104V L107A, the sfGFP reporter fluorescence stood at 0.0923 ± 0.0059 in data set [1], 0.215 ± 0.018 in data set [2] (ligand: 1 µM Pb) and 1.34 ± 0.1 in data set [2] (ligand: 30 µM Zn).

As to NMDDP M60L P61N K104V L107C, the sfGFP reporter fluorescence worked out at 0.759 ± 0.1 in data set [1], 1.83 ± 0.19 in data set [2] (ligand: 1 µM Pb) and 3.54 ± 0.46 in data set [2] (ligand: 30 µM Zn).

For the variant NMDDP K104V L107S, the sfGFP reporter fluorescence in data set [1] worked out at 0.0726 ± 0.0093; in data set [2] (ligand: 1 µM Pb) it was 0.159 ± 0.014; in data set [2] (ligand: 30 µM Zn) it was 1.27 ± 0.068.

Take NSAAP: the sfGFP reporter fluorescence in data set [1] turned out to be 0.0758 ± 0.0055; in data set [2] (ligand: 1 µM Pb), 0.162 ± 0.0077; in data set [2] (ligand: 30 µM Zn), 1.67 ± 0.15.

For NLDDP G124A L129A, the results for the sfGFP reporter fluorescence in data set [1], in data set [2] (ligand: 1 µM Pb) and in data set [2] (ligand: 30 µM Zn) were 0.0419 ± 0.0017, 0.0398 ± 0.0017 and 0.0426 ± 0.0023, respectively.

In the case of TIDSP L107C, the sfGFP reporter fluorescence in data set [1] was found to be 0.384 ± 0.026; in data set [2] (ligand: 1 µM Pb), 1.42 ± 0.32; in data set [2] (ligand: 30 µM Zn), 3.28 ± 0.26.

As to NIDAK M84A L107C, the sfGFP reporter fluorescence was found to be 1.54 ± 0.14 in data set [1], 2.6 ± 0.14 in data set [2] (ligand: 1 µM Pb) and 4.03 ± 0.52 in data set [2] (ligand: 30 µM Zn).

As to TIDDP D64K K104V, the sfGFP reporter fluorescence in data set [1] came to 0.156 ± 0.022; in data set [2] (ligand: 1 µM Pb), 0.472 ± 0.075; in data set [2] (ligand: 30 µM Zn), 2.62 ± 0.29.

For the variant NMDDA M60L, the sfGFP reporter fluorescence stood at 0.805 ± 0.062 in data set [1], 1.88 ± 0.22 in data set [2] (ligand: 1 µM Pb) and 3.33 ± 0.49 in data set [2] (ligand: 30 µM Zn).

For NPDAP I90L, the sfGFP reporter fluorescence in data set [1] is 0.0467 ± 0.0027; in data set [2] (ligand: 1 µM Pb) it was 0.04301 ± 0.00034; in data set [2] (ligand: 30 µM Zn), 0.0482 ± 0.0039.

With NIDDP M60L D64K R111L, the results for the sfGFP reporter fluorescence in data set [1], in data set [2] (ligand: 1 µM Pb) and in data set [2] (ligand: 30 µM Zn) were 1.98 ± 0.27, 3.14 ± 0.19 and 3.92 ± 0.41, respectively.

In the case of NIDDP I90L C134E, the sfGFP reporter fluorescence in data set [1] turned out to be 0.0691 ± 0.0074; in data set [2] (ligand: 1 µM Pb), 0.0913 ± 0.0088; in data set [2] (ligand: 30 µM Zn), 1.77 ± 0.32.

Consider NTDDP P61N D64K L107C, for which the results for the sfGFP reporter fluorescence in data set [1], in data set [2] (ligand: 1 µM Pb) and in data set [2] (ligand: 30 µM Zn) were 2.26 ± 0.67, 2.58 ± 0.67 and 3.04 ± 0.32, respectively.

As to NMDAP L101V K104V, the sfGFP reporter fluorescence in data set [1] amounted to 0.176 ± 0.024; in data set [2] (ligand: 1 µM Pb), 0.55 ± 0.022; in data set [2] (ligand: 30 µM Zn) it was 2.78 ± 0.34.

For NIEDP C134E, the figures for the sfGFP reporter fluorescence in data set [1], in data set [2] (ligand: 1 µM Pb) and in data set [2] (ligand: 30 µM Zn) were 0.194 ± 0.028, 0.316 ± 0.0082 and 4.73 ± 3.2, respectively.

For the variant NMDDP R96G K104V, the results for the sfGFP reporter fluorescence in data set [1], in data set [2] (ligand: 1 µM Pb) and in data set [2] (ligand: 30 µM Zn) were 0.0669 ± 0.0034, 0.0841 ± 0.003 and 0.58 ± 0.055, respectively.

In the case of NIDDP D64K V108E, the sfGFP reporter fluorescence in data set [1] turned out to be 0.181 ± 0.026; in data set [2] (ligand: 1 µM Pb), 0.581 ± 0.051; in data set [2] (ligand: 30 µM Zn) it was 3.32 ± 0.42.

For the variant NIDAK L107C G124A, the sfGFP reporter fluorescence amounted to 0.814 ± 0.086 in data set [1], 2.25 ± 0.053 in data set [2] (ligand: 1 µM Pb) and 3.09 ± 0.3 in data set [2] (ligand: 30 µM Zn).

In the case of NIDDP P61N C134E, the sfGFP reporter fluorescence worked out at 0.308 ± 0.021 in data set [1], 0.544 ± 0.11 in data set [2] (ligand: 1 µM Pb) and 3.19 ± 0.055 in data set [2] (ligand: 30 µM Zn).

As for NMDAP L107C, the sfGFP reporter fluorescence came out at 2.23 ± 0.28 in data set [1], 3.21 ± 0.21 in data set [2] (ligand: 1 µM Pb) and 3.29 ± 0.5 in data set [2] (ligand: 30 µM Zn).

On to NIDDP I90L K104V L107C, for which the sfGFP reporter fluorescence was 0.0665 ± 0.003 in data set [1], 0.0702 ± 0.0034 in data set [2] (ligand: 1 µM Pb) and 0.178 ± 0.014 in data set [2] (ligand: 30 µM Zn).

Regarding NISDP L107C, the sfGFP reporter fluorescence in data set [1] was 2.65 ± 0.43; in data set [2] (ligand: 1 µM Pb) it was 3.61 ± 0.5; in data set [2] (ligand: 30 µM Zn), 3.33 ± 0.18.

As for TIDAP L107C G124A, the figures for the sfGFP reporter fluorescence in data set [1], in data set [2] (ligand: 1 µM Pb) and in data set [2] (ligand: 30 µM Zn) were 0.27 ± 0.037, 1.38 ± 0.23 and 2.81 ± 0.45, respectively.

For NTCDP M60L, the sfGFP reporter fluorescence is 0.222 ± 0.016 in data set [1], 0.784 ± 0.021 in data set [2] (ligand: 1 µM Pb) and 2.43 ± 0.27 in data set [2] (ligand: 30 µM Zn).

With NSEPP, the sfGFP reporter fluorescence in data set [1] was found to be 0.0629 ± 0.0028; in data set [2] (ligand: 1 µM Pb) it was 0.145 ± 0.014; in data set [2] (ligand: 30 µM Zn), 1.79 ± 0.34.

For the variant NMDAK L107C, the sfGFP reporter fluorescence in data set [1] was 2.86 ± 0.17; in data set [2] (ligand: 1 µM Pb), 3.46 ± 0.15; in data set [2] (ligand: 30 µM Zn), 3.68 ± 0.19.

In the case of NMDAA K104R L107C, the figures for the sfGFP reporter fluorescence in data set [1], in data set [2] (ligand: 1 µM Pb) and in data set [2] (ligand: 30 µM Zn) were 2.28 ± 0.3, 3.13 ± 0.41 and 3.83 ± 0.4, respectively.

Take NMDDP M60L D64T L107C: the sfGFP reporter fluorescence amounted to 3.16 ± 0.21 in data set [1], 2.93 ± 0.29 in data set [2] (ligand: 1 µM Pb) and 4.14 ± 0.31 in data set [2] (ligand: 30 µM Zn).

For NIDDP H105E L107C C134E, the sfGFP reporter fluorescence in data set [1] came out at 2.32 ± 0.044; in data set [2] (ligand: 1 µM Pb), 2.05 ± 0.18; in data set [2] (ligand: 30 µM Zn) it was 2.82 ± 0.14.

On to NMDDP I3M P61N K104V L107C, for which the sfGFP reporter fluorescence stood at 0.501 ± 0.013 in data set [1], 0.989 ± 0.041 in data set [2] (ligand: 1 µM Pb) and 2.79 ± 0.18 in data set [2] (ligand: 30 µM Zn).

Take NIEDP L107C: the results for the sfGFP reporter fluorescence in data set [1], in data set [2] (ligand: 1 µM Pb) and in data set [2] (ligand: 30 µM Zn) were 1.74 ± 0.23, 2.69 ± 0.47 and 3.33 ± 0.68, respectively.

Take NIDSP M60L: the sfGFP reporter fluorescence came out at 0.251 ± 0.048 in data set [1], 0.739 ± 0.14 in data set [2] (ligand: 1 µM Pb) and 2.25 ± 0.49 in data set [2] (ligand: 30 µM Zn).
